The text below walks through data of PMC5660149, “Oligomerization and ATP stimulate condensin-mediated DNA compaction” (Scientific Reports, 2017).

This test concerns the target budding yeast condensin holoenzyme (heteropentamer of Smc2, Smc4, Brn1, Ycg1 and Ycs4) (budding yeast) (UniProt P38989). The test is described as follows: SEC; Superose 6 10/300 gel filtration as the last step of purification after nickel-NTA and StrepTactin; self-association of the heteropentamer (monomer) into a multimer.

In the case of “budding yeast condensin holoenzyme (heteropentamer of Smc2, Smc4, Brn1, Ycg1 and Ycs4), P38989 1-1170; Q12267 1-1418; P38170 1-754; Q06680 1-1035; Q06156 1-1176”, the percent multimeric in the Streptactin-purified fraction is 30%.
